B1: sp¦Q9UKX7¦NUP50_HUMAN (protein, UniProt Q9UKX7 1-468, looked up)
Nuclear pore complex protein …: MAKRNAEKELTDRNWDQEDEAEEVGTFSMASEEVLKNRAIKKAKRRNVGFESDTGGAFKGFKGLVVPSGGGRFSGFGSGAGGKPLEGLSNGNNITSAPPFASAKAAADPKVAFGSLAANGPTTLVDKVSNPKTNGDSQQPSSSGLASSKACVGNAYHKQLAALNCSVRDWIVKHVNTNPLCDLTPIFKDYEKYLANIEQQHGNSGRNSESESNKVAAETQSPSLFGSTKLQQESTFLFHGNKTEDTPDKKMEVASEKKTDPSSLGATSASFNFGKKVDSSVLGSLSSVPLTGFSFSPGNSSLFGKDTTQSKPVSSPFPTKPLEGQAEGDSGECKGGDEEENDEPPKVVVTEVKEEDAFYSKKCKLFYKKDNEFKEKGIGTLHLKPTANQKTQLLVRADTNLGNILLNVLIPPNMPCTRTGKNNVLIVCVPNPPIDEKNATMPVTMLIRVKTSEDADELHKILLEKKDA
B2: sp¦P25788¦PSA3_HUMAN (protein, UniProt P25788 2-255, looked up)
Proteasome subunit alpha …: SSIGTGYDLSASTFSPDGRVFQVEYAMKAVENSSTAIGIRCKDGVVFGVEKLVLSKLYEEGSNKRLFNVDRHVGMAVAGLLADARSLADIAREEASNFRSNFGYNIPLKHLADRVAMYVHAYTLYSAVRPFGCSFMLGSYSVNDGAQLYMIDPSGVSYGYWGCAIGKARQAAKTEIEKLQMKEMTCRDIVKEVAKIIYIVHDEVKDKAFELELSWVGELTNGRHEIVPKDIREEAEKYAKESLKEEDESDDDNM
B3: sp¦P20618¦PSB1_HUMAN (protein, UniProt P20618 29-241, looked up)
Proteasome subunit beta type-1: RFSPYVFNGGTILAIAGEDFAIVASDTRLSEGFSIHTRDSPKCYKLTDKTVIGCSGFHGDCLTLTKIIEARLKMYKHSNNKAMTTGAIAAMLSTILYSRRFFPYYVYNIIGGLDEEGKGAVYSFDPVGSYQRDSFKAGGSASAMLQPLLDNQVGFKNMQNVEHVPLSLDRAMRLVKDVFISAAERDVYTGDALRICIVTKEGIREETVSLRKD
B4: sp¦P10620¦MGST1_HUMAN (protein, UniProt P10620 1-155, looked up)
Microsomal glutathione …: MVDLTQVMDDEVFMAFASYATIILSKMMLMSTATAFYRLTRKVFANPEDCVAFGKGENAKKYLRTDDRVERVRRAHLNDLENIIPFLGIGLLYSLSGPDPSTAILHFRLFVGARIYHTIAYLTPLPQPNRALSFFVGYGVTLSMAYRLLKSKLYL
B5: sp¦O75083¦WDR1_HUMAN (protein, UniProt O75083 1-606, looked up)
WD repeat-containing protein 1: MPYEIKKVFASLPQVERGVSKIIGGDPKGNNFLYTNGKCVILRNIDNPALADIYTEHAHQVVVAKYAPSGFYIASGDVSGKLRIWDTTQKEHLLKYEYQPFAGKIKDIAWTEDSKRIAVVGEGREKFGAVFLWDSGSSVGEITGHNKVINSVDIKQSRPYRLATGSDDNCAAFFEGPPFKFKFTIGDHSRFVNCVRFSPDGNRFATASADGQIYIYDGKTGEKVCALGGSKAHDGGIYAISWSPDSTHLLSASGDKTSKIWDVSVNSVVSTFPMGSTVLDQQLGCLWQKDHLLSVSLSGYINYLDRNNPSKPLHVIKGHSKSIQCLTVHKNGGKSYIYSGSHDGHINYWDSETGENDSFAGKGHTNQVSRMTVDESGQLISCSMDDTVRYTSLMLRDYSGQGVVKLDVQPKCVAVGPGGYAVVVCIGQIVLLKDQRKCFSIDNPGYEPEVVAVHPGGDTVAIGGVDGNVRLYSILGTTLKDEGKLLEAKGPVTDVAYSHDGAFLAVCDASKVVTVFSVADGYSENNVFYGHHAKIVCLAWSPDNEHFASGGMDMMVYVWTLSDPETRVKIQDAHRLHHVSSLAWLDEHTLVTTSHDASVKEWTITY
B6: sp¦O60925¦PFD1_HUMAN (protein, UniProt O60925 2-122, looked up)
Prefoldin subunit 1: AAPVDLELKKAFTELQAKVIDTQQKVKLADIQIEQLNRTKKHAHLTDTEIMTLVDETNMYEGVGRMFILQSKEAIHSQLLEKQKIAEEKIKELEQKKSYLERSVKEAEDNIREMLMARRAQ
B7: sp¦P55145¦MANF_HUMAN (protein, UniProt P55145 25-182, looked up)
Mesencephalic …: LRPGDCEVCISYLGRFYQDLKDRDVTFSPATIENELIKFCREARGKENRLCYYIGATDDAATKIINEVSKPLAHHIPVEKICEKLKKKDSQICELKYDKQIDLSTVDLKKLRVKELKKILDDWGETCKGCAEKSDYIRKINELMPKYAPKAASARTDL
B8: sp¦P82979¦SARNP_HUMAN (protein, UniProt P82979 2-210, looked up)
SAP domain-containing …: ATETVELHKLKLAELKQECLARGLETKGIKQDLIHRLQAYLEEHAEEEANEEDVLGDETEEEETKPIELPVKEEEPPEKTVDVAAEKKVVKITSEIPQTERMQKRAERFNVPVSLESKKAARAARFGISSVPTKGLSSDNKPMVNLDKLKERAQRFGLNVSSISRKSEDDEKLKKRKERFGIVTSSAGTGTTEDTEAKKRKRAERFGIA
B9: sp¦P28074¦PSB5_HUMAN (protein, UniProt P28074 60-263, looked up)
Proteasome subunit beta type-5: TTTLAFKFRHGVIVAADSRATAGAYIASQTVKKVIEINPYLLGTMAGGAADCSFWERLLARQCRIYELRNKERISVAAASKLLANMVYQYKGMGLSMGTMICGWDKRGPGLYYVDSEGNRISGATFSVGSGSVYAYGVMDRGYSYDLEVEQAYDLARRAIYQATYRDAYSGGAVNLYHVREDGWIRVSSDNVADLHEKYSGSTP
B10: sp¦Q15424¦SAFB1_HUMAN (protein, UniProt Q15424 2-915, looked up)
Scaffold attachment factor B1: AETLSGLGDSGAAGAAALSSASSETGTRRLSDLRVIDLRAELRKRNVDSSGNKSVLMERLKKAIEDEGGNPDEIEITSEGNKKTSKRSSKGRKPEEEGVEDNGLEENSGDGQEDVETSLENLQDIDIMDISVLDEAEIDNGSVADCVEDDDADNLQESLSDSRELVEGEMKELPEQLQEHAIEDKETINNLDTSSSDFTILQEIEEPSLEPENEKILDILGETCKSEPVKEESSELEQPFAQDTSSVGPDRKLAEEEDLFDSAHPEEGDLDLASESTAHAQSSKADSLLAVVKREPAEQPGDGERTDCEPVGLEPAVEQSSAASELAEASSEELAEAPTEAPSPEARDSKEDGRKFDFDACNEVPPAPKESSTSEGADQKMSSPEDDSDTKRLSKEEKGRSSCGRNFWVSGLSSTTRATDLKNLFSKYGKVVGAKVVTNARSPGARCYGFVTMSTAEEATKCINHLHKTELHGKMISVEKAKNEPVGKKTSDKRDSDGKKEKSSNSDRSTNLKRDDKCDRKDDAKKGDDGSGEKSKDQDDQKPGPSERSRATKSGSRGTERTVVMDKSKGVPVISVKTSGSKERASKSQDRKSASREKRSVVSFDKVKEPRKSRDSESHSRVRERSEREQRMQAQWEREERERLEIARERLAFQRQRLERERMERERLERERMHVEHERRREQERIHREREELRRQQELRYEQERRPAVRRPYDLDRRDDAYWPEAKRAALDERYHSDFNRQDRFHDFDHRDRGRYPDHSVDRREGSRSMMGEREGQHYPERHGGPERHGRDSRDGWGGYGSDKRMSEGRGLPPPPRRDWGDHGRREDDRSWQGTADGGMMDRDHKRWQGGERSMSGHSGPGHMMNRGGMSGRGSFAPGGASRGHPIPHGGMQGGFGGQSRGSRPSDARFTRRY

System: human HL60 cells
Assay: SWATH-MS proteomics, differential protein representation, akirin2 KO vs WT HL60 cells
Type: cell-based
Settings: akirin2 KO vs WT HL60 cells; sheet "Over-represented in KO"
Summary of the method: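 Differential representation compares akirin2 KO with WT HL60 across three biological replicates, 5 µg digest each, acquired by data-independent SWATH on a 120-min gradient. Library built from combined IDA runs searched with Paragon; proteins accepted at 1% FDR, with total-area-sum normalization.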

Row | Molecule | Fold Change | Log (Fold Change)
1 | B1 | 1.164 | 0.06601
2 | B2 | 1.227 | 0.08878
3 | B3 | 1.163 | 0.06574
4 | B4 | 1.217 | 0.08527
5 | B5 | 1.216 | 0.0848
6 | B6 | 1.213 | 0.08377
7 | B7 | 1.173 | 0.06948
8 | B8 | 1.173 | 0.06929
9 | B9 | 1.209 | 0.08243
10 | B10 | 1.249 | 0.09669

Source: publication PMC8298264, “Function of cofactor Akirin2 in the regulation of gene expression in model human neutrophil-like HL60 cells” (Bioscience Reports, 2021)
